From article PMC6684798, “Structural basis for the target specificity of actin histidine methyltransferase SETD3” (Nature Communications, 2019)
Like-named read-outs stand apart in the source and are kept apart here.

Tests used:
SETD3 = target: T1, SETD3 (Homo sapiens, UniProt Q86TU7); experiment: Ki measurement of sinefungin against SAM for SETD3 (Supplementary Fig. 2a, b); format: biochemical
T1 construct: GST (cleaved yes); made in house; host or cells: Escherichia coli BL21(DE3) CodonPlus
T1 sequence (Q86TU7 1-594): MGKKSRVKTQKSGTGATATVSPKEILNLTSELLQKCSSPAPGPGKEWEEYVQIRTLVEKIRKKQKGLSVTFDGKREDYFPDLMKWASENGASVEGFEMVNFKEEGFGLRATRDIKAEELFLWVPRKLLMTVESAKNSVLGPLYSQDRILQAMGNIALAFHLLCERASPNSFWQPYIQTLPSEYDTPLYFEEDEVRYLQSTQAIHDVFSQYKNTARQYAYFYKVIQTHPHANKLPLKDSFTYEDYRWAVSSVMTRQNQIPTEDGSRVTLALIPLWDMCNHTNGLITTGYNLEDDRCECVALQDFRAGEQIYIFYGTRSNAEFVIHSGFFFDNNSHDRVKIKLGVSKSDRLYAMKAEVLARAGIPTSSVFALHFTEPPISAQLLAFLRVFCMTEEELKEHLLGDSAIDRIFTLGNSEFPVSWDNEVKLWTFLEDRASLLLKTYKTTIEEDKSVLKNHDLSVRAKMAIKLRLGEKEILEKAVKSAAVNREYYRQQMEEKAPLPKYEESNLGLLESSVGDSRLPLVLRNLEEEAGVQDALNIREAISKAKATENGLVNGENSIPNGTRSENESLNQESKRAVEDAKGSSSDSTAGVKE
Experimental: Recombinant human SETD3 (pXC2003) was expressed as a GST-fusion[22] in Escherichia coli BL21(DE3) CodonPlus^TM cells (Stratagene). The SETD3 mutants at residue 255 (N255A; pXC2093 and N255V; pXC2094) were generated with Q5 Site-Directed Mutagenesis Kit (New England Biolabs), confirmed by sequencing and the same protocol for expression and purification were followed. Briefly, the purification was conducted in a BIO-RAD NGC^TM system using a three-column chromatography of glutathione-sepharose, HiTrap Q-HP and Superdex 200. The GST tag was removed by PreScisson Protease (purified in-house). The purified SETD3 proteins at a concentration ~25–35 mg/ml were kept at −80 °C in storage buffer for future use [20 mM Tris (pH 8.0), 200 mM NaCl, 5% glycerol, and 0.5 mM tris (2-carboxyethyl) phosphine (TCEP)].
For Ki measurement of sinefungin (Supplementary Fig. 2a, b), a reaction mixture contained 20 mM Tris/HCl (pH 8.0), 50 mM NaCl, 0.1 mg/ml BSA, 1 mM DTT, 0.18 µM SETD3, 40 µM H73 (residues 66–80) peptide and first incubated with varied concentration of sinefungin (0–100 µM) for 30 min, reactions were then started by addition of 2–8 µM SAM. After 30 min at room temperature, the reactions were terminated by the addition of TFA to 0.1% (v/v). […]

[1] = target: Recombinant human SETD3 (pXC2003), wild type (human) (UniProt Q86TU7)
[2] = target: Recombinant human SETD3 (pXC2003), wild type (human) (UniProt Q86TU7); remark: listed apart in the source

## Nc1ncnc2c1ncn2[C@@H]1O[C@H](C[C@@H](N)CC[C@H](N)C(=O)O)[C@@H](O)[C@H]1O [sinefungin, adenosyl ornithine]
SETD3; Lineweaver-Burk, H73(66–80) 40 µM, 0–100 µM sinefungin, 2–8 µM SAM, pH 8.0
  mode of inhibition of SETD3: SAM-competitive inhibitor
SETD3; Supplementary Fig. 2
  support of methyl transfer / inhibition: does not support the methyl transfer, and thus functions as an inhibitor

## actin H73K peptide (residues 66-88) (from UniProt P60709 66-88)
[1]
  Km of steady-state methylation kinetics (MTase-Glo), pH 10.5, 37 °C: 5.2 μM

## actin H73K peptide (residues 66-80) (from UniProt P60709 66-80)
[2]
  Km of steady-state methylation kinetics (MTase-Glo), pH 10.5, 37 °C: 430 μM

## actin H73 peptide (residues 66-80) (from UniProt P60709 66-80)
[2]
  Km of steady-state methylation kinetics (MTase-Glo), pH 8.0, room temperature: 21 μM
